Patent US8361793B2, “Monoclonal antibodies against gonadotropin-releasing hormone receptor” (Vancouver Biotech Ltd., priority 2009, dated 2013)

T1: GnRH receptor on OC-3-VGH cancer cells (Homo sapiens, UniProt P30968)
T1 construct: endogenous in cells; host or cells: OC-3-VGH ovarian cancer cells
T1 sequence (P30968 1-328): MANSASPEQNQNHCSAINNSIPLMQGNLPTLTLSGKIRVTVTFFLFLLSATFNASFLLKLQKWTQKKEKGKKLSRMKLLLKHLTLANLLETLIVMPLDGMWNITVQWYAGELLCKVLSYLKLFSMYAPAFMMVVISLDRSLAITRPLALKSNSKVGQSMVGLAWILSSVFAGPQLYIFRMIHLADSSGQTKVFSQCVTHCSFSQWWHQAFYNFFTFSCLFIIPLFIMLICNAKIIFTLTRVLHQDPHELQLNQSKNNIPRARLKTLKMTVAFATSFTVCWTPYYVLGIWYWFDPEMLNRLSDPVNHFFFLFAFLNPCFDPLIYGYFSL

T2: synthetic peptide corresponding to the N-terminal 1-29 amino acid residues of human GnRH receptor (Homo sapiens, UniProt P30968)
T2 construct: purchased Gemed Lab, South San Francisco, Calif. and Genescript, NJ (custom synthesis)
T2 sequence (P30968 1-29 limits assumed): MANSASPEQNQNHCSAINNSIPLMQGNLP

T3: human GnRH receptor (Homo sapiens, UniProt P30968)
T3 construct: endogenous in cells; host or cells: OC-3-VGH ovarian cancer cells
T3 sequence (P30968 1-328): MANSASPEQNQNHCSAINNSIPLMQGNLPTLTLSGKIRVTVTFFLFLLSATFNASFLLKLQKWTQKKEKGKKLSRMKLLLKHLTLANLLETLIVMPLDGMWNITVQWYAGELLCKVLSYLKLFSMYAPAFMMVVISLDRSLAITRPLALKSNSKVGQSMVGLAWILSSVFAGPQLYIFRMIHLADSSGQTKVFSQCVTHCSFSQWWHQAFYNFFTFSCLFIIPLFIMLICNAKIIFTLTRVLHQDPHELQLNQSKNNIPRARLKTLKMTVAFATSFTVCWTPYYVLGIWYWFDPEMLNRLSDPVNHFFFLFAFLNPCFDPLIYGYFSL


What was measured:
[1] = tested on: OC-3-VGH ovarian cancer cells; experiment: MTT assay, anti-proliferative effects; type: cell-based, human; details: 48 hrs; GnRH 0.1 μg/ml, Antide 0.1 and 0.2 μg/ml, GHR-106 10 and 20 μg/ml
Description: Anti-proliferative effects of GnRH and GHR-106 monoclonal antibody on the growth of cultured cancer cells were also studied by MTT assay. An MTT assay was performed on cancer cells on a 24-well plate, as described by Choi, J-H, et al., Endocrine-Related Cancer (2006) 13:641-651.
1×10^4 Cells were dispensed into each well and cultured for 48 hours. Following removal of cultured media, fresh medium containing GnRH (0.1 μg/ml) or GHR-106 (10 μg/ml) was added to each well for additional 48 hours incubation. After the culture medium was removed, 200 μl of MTT (3-(4,5-dimethylthiazol-2-yl)-2,5-diphenyltetrazoliumbromide) (2.5 mg/ml in PBS, Sigma) was added to each well. After 5 hours of incubation with MTT at 37° C. in a 5% CO2 incubator, the supernatant was removed, and 200 μl of dimethylsulfoxide (DMSO) was added to each well, and shaking at 150 rpm for 5 min. Absorbance at 560 nm was determined spectrophotometrically. The negative control containing cells without any antibody treatment served as the negative control.

[2] = tested on: ribosomal proteins (P0, P1, P2 and L37) mRNA in OC-3-VGH cancer cells; experiment: Semi-quantitative RT-PCR of mRNA expression of ribosomal proteins; type: cell-based, human; details: 24 hours, GHR-106 10 μg/ml, GnRH 0.1 μg/ml, relative to GAPDH
Source text: Four ribosomal proteins (P0, P1, P2 and L37) were selected for semi-quantitative analysis of mRNA expression. Expression of mRNA of GAPDH gene was used as the internal control. Primers for amplification were as follows:
A housekeeping gene, glyceraldehyde-3-phosphate dehydrogenase (GAPDH) was amplified to check the functional integrity of cDNA and used as internal control by using 5′-[…]-3′ (sense) (SEQ ID NO:20) and 5′-[…]-3′ (antisense) (SEQ ID NO:21) as primers (805 bp) (11).
RNA extraction, cDNA preparation and PCR amplification were conducted as described above in Preparation A.
Percent changes in RT-PCR signals which represent levels of P0, P1, P2, and L37 ribosomal proteins are presented with respect to GAPDH (100%) at 0 and 24 hrs. Messenger RNA expression of these genes of cultured cells without GHR-106 treatment served as the internal negative control and those with GnRH treatment served as positive control.

[3] = target: T1, GnRH receptor on OC-3-VGH cancer cells; experiment: Competition with GHR-106 for binding to microwells coated with OC-3-VGH cancer cells; details: 2 μg/ml GHR-106; GnRH 0.1 to 10 μg/ml
Description: (§1) Microwells coated with synthetic peptide or cancer cells were used to estimate the affinity constant between GHR-106 and GnRH receptor. Following one hour incubation at 37° C. with GHR-106 in microwells, goat anti-mouse IgG labeled with alkaline phosphatase served as the second antibody for signal detection with p-nitrophenylphosphate.
The decrease in relative signal intensity of antibody binding to cancer cells with increasing GnRH concentrations ranging from 0.1 to 10 μg/ml is shown in FIG. 3A.

[4] = tested on: DU-145; experiment: TUNEL apoptosis assay, DU-145; type: cell-based, human; details: 24-hour treatment
[5] = tested on: MDA-MB-435S; experiment: TUNEL apoptosis assay, MDA-MB-435S; type: cell-based, human; details: 24-hour treatment
[6] = tested on: A549; experiment: TUNEL apoptosis assay, A549; type: cell-based, human; details: 24-hour treatment
[7] = target: T2, synthetic peptide corresponding to the N-terminal 1-29 amino acid residues of human GnRH receptor; experiment: ELISA, dose-dependent binding to microwells coated with synthetic peptide; details: one hour incubation at 37° C.
Description: as §1

[8] = target: T3, human GnRH receptor; experiment: Western blot assay of OC-3-VGH ovarian cancer cell extract; type: binding; details: OC-3-VGH cancer cell extract
Description: Western blot assay was performed with GHR-106 using alkaline phosphatase-labeled goat anti-mouse IgG as the detecting probe.

[9] = tested on: OC-3-VGH cancer cells; experiment: ELISA, dose-dependent binding to microwells coated with cancer cells; set-up: species or system human; details: one hour incubation at 37° C.
Description: as §1

Molecule	dose-dependent binding to 1-29 synthetic peptide coated onto microwells [7]	molecular weight of protein band recognized in Western blot [8]	anti-proliferative effect (relative absorbance at 560 nm normalized with negative control) [1]	mRNA expression of four ribosomal proteins (P0, P1, P2 and L37) [2]	% Apoptosis (Negative Control*) ([4]; DU-145, 10 μg/mL)	% Apoptosis (Negative Control*) ([4]; DU-145, 20 μg/mL)	% Apoptosis (Negative Control*) ([5]; 20 μg/mL)	% Apoptosis (Negative Control*) ([6]; A549, 10 μg/mL)	% Apoptosis (Negative Control*) ([6]; A549, 20 μg/mL)	dose-dependent binding to OC-3-VGH cancer cells coated on microwells [9]	other results
Gonadotropin releasing hormone [GnRH I, reference compound]	–	–	significantly inhibit the growth of cultured cancer cells	down regulation of mRNA expression	–	–	–	–	–	–	–
MANSASPEQNQNHCSAINNSIPLMQGNLP (SEQ ID NO:7) (PEPTIDE (1)...(29) extracellular domain of human GnRH receptor; listed as Homo sapiens) [1-29 synthetic peptide, synthetic peptide corresponding to N-terminal residues 1-29 of human GnRH receptor]	–	–	–	–	–	–	–	–	–	–	inhibition of the binding of GHR-106 to cancer cells coated on microwells [3]: inhibit GHR-106 binding
RP215: antibody used as positive control in the apoptosis assay [reference compound]	–	–	–	–	32 ± 7 (12 ± 3)^+ %	43 ± 4 (19 ± 15)^− %	37 ± 8 (6 ± 1)^+ %	30 ± 9 (11 ± 5)^+ %	36 ± 12 (17 ± 3)^+ %	–	–
Antide	–	–	induce apoptosis, although to a much lesser extent	–	–	–	–	–	–	–	–

More lines, main results first:

dose-dependent binding to 1-29 synthetic peptide coated onto microwells [7]	molecular weight of protein band recognized in Western blot [8]	Molecule	anti-proliferative effect (relative absorbance at 560 nm normalized with negative control) [1]	mRNA expression of four ribosomal proteins (P0, P1, P2 and L37) [2]	% Apoptosis (Negative Control*) ([4]; DU-145, 10 μg/mL)	% Apoptosis (Negative Control*) ([4]; DU-145, 20 μg/mL)	% Apoptosis (Negative Control*) ([5]; 20 μg/mL)	% Apoptosis (Negative Control*) ([6]; A549, 10 μg/mL)	% Apoptosis (Negative Control*) ([6]; A549, 20 μg/mL)	dose-dependent binding to OC-3-VGH cancer cells coated on microwells [9]	other results
dose-dependent binding	approximately 60 KDa	GHR-106: monoclonal antibody against synthetic peptide of positions 1-29 of the extracellular domain of human GnRH receptor; hybridoma ATCC PTA-10252 (antibody, V domains shown, Synthetically constructed monoclonal antibody GHR106) VL: MDSQAQVLILLLLWVSGTCGDIVMSQSPSSLAVSAGEKVTMSCKSSQSLLNSRTRKNYLAWYQQKPGQSPKLLIYWASTRESGVPDRFTGSGSGTDFTLTISSVQAEDLAVYYCKQSYNLYTFGGGTKLEIK VH: QVQLKESGPGLVAPSQSLSITCTVSGFSLSRYSVHWVRQPPGKGLEWLGMIWGGGSTDYNSALKSRLSISKDNSKSQVFLKMNSLQTDDTAMYYCARGNDGYYSFAYWGQGTLVTVSS	significantly inhibit the growth of cultured cancer cells	significant decrease in expression	32 ± 2 (12 ± 3)^+ %	32 ± 5 (19 ± 15)^− %	45 ± 11 (6 ± 1)^+ %	34 ± 10 (11 ± 5)^+ %	46 ± 11 (17 ± 3)^+ %	dose-dependent binding	% Apoptosis (Negative Control*) ([5]; 10 μg/mL): 31 ± 4 (7 ± 2)^+ %
dose-dependent binding	60 KDa	GHR-103: monoclonal antibody to human GnRH receptor; amino acid sequence determined to be the same as that of GHR-106 (antibody, V domains shown) VL: MDSQAQVLILLLLWVSGTCGDIVMSQSPSSLAVSAGEKVTMSCKSSQSLLNSRTRKNYLAWYQQKPGQSPKLLIYWASTRESGVPDRFTGSGSGTDFTLTISSVQAEDLAVYYCKQSYNLYTFGGGTKLEIK VH: QVQLKESGPGLVAPSQSLSITCTVSGFSLSRYSVHWVRQPPGKGLEWLGMIWGGGSTDYNSALKSRLSISKDNSKSQVFLKMNSLQTDDTAMYYCARGNDGYYSFAYWGQGTLVTVSS	–	–	–	–	–	–	–	dose-dependent binding	–
